Data as given in IntAct's records for PubMed 35512704.

B1: Speckle-type POZ protein (Homo sapiens), O43791 (parent)
chain: MSRVPSPPPPAEMSSGPVAESWCYTQIKVVKFSYMWTINNFSFCREEMGEVIKSSTFSSGANDKLKWCLRVNPKGLDEESKDYLSLYLLLVSCPKSEVRAKFKFSILNAKGEETKAMESQRAYRFVQGKDWGFKKFIRRDFLLDEANGLLPDDKLTLFCEVSVVQDSVNISGQNTMNMVKVPECRLADELGGLWENSRFTDCCLCVAGQEFQAHKAILAARSPVFSAMFEHEMEESKKNRVEINDVEPEVFKEMMCFIYTGKAPNLDKMADDLLAAADKYALERLKVMCEDALCSNLSVENAAEILILADLHSADQLKTQAVDFINYHASDVLETSGWKSMVVSHPHLVAEAYRSLASAQCPFLGPPRKRLKQS

Variants of: B1
Details: with daxx_human DAXX
MSRVPSPPPPAEMSSGPVAESWCYTQIKVVKFSYMWTINNFSFCREEMGEVIKSSTFSSGANDKLKWCLRVNPKGLDEESKDYLSLYLLLVSCPKSEVRAKFKFSILNAKGEETKAMESQRAYRFVQGKDWGVKKFIRRDFLLDEANGLLPDDKLTLFCEVSVVQDSVNISGQNTMNMVKVPECRLADELGGLWENSRFTDCCLCVAGQEFQAHKAILAARSPVFSAMFEHEMEESKKNRVEINDVEPEVFKEMMCFIYTGKAPNLDKMADDLLAAADKYALERLKVMCEDALCSNLSVENAAEILILADLHSADQLKTQAVDFINYHASDVLETSGWKSMVVSHPHLVAEAYRSLASAQCPFLGPPRKRLKQS [F133V] was tested, and the “effect of a mutation on the interaction” value was “with no effect”.

Variants of: B1
Details: with ddx5_human DDX5, P17844
ddx5_human DDX5, P17844, sequence (P17844 whole entry): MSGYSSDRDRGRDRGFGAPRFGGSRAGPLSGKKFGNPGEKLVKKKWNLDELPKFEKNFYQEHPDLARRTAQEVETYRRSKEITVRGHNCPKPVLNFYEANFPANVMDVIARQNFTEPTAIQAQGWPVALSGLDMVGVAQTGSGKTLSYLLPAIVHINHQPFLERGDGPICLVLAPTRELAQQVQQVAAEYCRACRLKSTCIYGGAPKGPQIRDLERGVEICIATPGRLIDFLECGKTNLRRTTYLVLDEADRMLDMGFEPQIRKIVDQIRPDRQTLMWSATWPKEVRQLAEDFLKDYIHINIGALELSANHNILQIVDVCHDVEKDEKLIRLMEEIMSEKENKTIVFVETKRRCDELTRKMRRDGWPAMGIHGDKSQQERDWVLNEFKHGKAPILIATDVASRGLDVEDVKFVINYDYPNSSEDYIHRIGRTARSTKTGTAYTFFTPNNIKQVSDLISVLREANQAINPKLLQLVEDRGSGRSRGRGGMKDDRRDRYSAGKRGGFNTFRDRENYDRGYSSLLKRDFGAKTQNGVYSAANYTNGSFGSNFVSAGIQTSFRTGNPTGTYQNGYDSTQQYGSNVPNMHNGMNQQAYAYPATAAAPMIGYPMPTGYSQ
With MSRVPSPPPPAEMSSGPVAESWCYTQIKVVKFSYMWTINNFSFCREEMGEVIKSSTFSSGANDKLKWCLRVNPKGLDEESKDYLSLYLLLVSCPKSEVRAKFKFSILNAKGEETKAMESQRAYRFVQGKDWGVKKFIRRDFLLDEANGLLPDDKLTLFCEVSVVQDSVNISGQNTMNMVKVPECRLADELGGLWENSRFTDCCLCVAGQEFQAHKAILAARSPVFSAMFEHEMEESKKNRVEINDVEPEVFKEMMCFIYTGKAPNLDKMADDLLAAADKYALERLKVMCEDALCSNLSVENAAEILILADLHSADQLKTQAVDFINYHASDVLETSGWKSMVVSHPHLVAEAYRSLASAQCPFLGPPRKRLKQS [F133V] the “effect of a mutation on the interaction” value was “with no effect”.

Variants of: B1
Details: with dll3_human DLL3, Q9NYJ7
dll3_human DLL3, Q9NYJ7, sequence (Q9NYJ7 whole entry): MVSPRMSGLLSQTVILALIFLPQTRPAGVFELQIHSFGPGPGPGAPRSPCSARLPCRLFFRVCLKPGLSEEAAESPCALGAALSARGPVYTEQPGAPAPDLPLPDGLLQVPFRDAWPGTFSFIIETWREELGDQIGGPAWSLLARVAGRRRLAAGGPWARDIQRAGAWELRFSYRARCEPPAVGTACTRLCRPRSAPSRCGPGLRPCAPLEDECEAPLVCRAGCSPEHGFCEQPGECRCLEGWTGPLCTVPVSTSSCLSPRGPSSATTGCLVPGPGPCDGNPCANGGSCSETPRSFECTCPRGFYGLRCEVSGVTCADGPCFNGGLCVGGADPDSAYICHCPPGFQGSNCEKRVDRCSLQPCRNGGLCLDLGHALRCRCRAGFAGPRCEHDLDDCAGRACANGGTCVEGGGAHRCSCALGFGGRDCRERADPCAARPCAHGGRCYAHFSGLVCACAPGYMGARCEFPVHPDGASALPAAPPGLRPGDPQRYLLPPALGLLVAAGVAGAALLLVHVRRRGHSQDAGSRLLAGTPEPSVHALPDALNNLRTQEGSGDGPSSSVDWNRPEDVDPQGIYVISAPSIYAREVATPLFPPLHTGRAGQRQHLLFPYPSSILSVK
For MSRVPSPPPPAEMSSGPVAESWCYTQIKVVKFSYMWTINNFSFCREEMGEVIKSSTFSSGANDKLKWCLRVNPKGLDEESKDYLSLYLLLVSCPKSEVRAKFKFSILNAKGEETKAMESQRAYRFVQGKDWGVKKFIRRDFLLDEANGLLPDDKLTLFCEVSVVQDSVNISGQNTMNMVKVPECRLADELGGLWENSRFTDCCLCVAGQEFQAHKAILAARSPVFSAMFEHEMEESKKNRVEINDVEPEVFKEMMCFIYTGKAPNLDKMADDLLAAADKYALERLKVMCEDALCSNLSVENAAEILILADLHSADQLKTQAVDFINYHASDVLETSGWKSMVVSHPHLVAEAYRSLASAQCPFLGPPRKRLKQS [F133V], the “effect of a mutation on the interaction” value was “with no effect”.

Variants of: B1
Details: with duox2_human DUOX2, Q9NRD8
duox2_human DUOX2, Q9NRD8, sequence (Q9NRD8 whole entry): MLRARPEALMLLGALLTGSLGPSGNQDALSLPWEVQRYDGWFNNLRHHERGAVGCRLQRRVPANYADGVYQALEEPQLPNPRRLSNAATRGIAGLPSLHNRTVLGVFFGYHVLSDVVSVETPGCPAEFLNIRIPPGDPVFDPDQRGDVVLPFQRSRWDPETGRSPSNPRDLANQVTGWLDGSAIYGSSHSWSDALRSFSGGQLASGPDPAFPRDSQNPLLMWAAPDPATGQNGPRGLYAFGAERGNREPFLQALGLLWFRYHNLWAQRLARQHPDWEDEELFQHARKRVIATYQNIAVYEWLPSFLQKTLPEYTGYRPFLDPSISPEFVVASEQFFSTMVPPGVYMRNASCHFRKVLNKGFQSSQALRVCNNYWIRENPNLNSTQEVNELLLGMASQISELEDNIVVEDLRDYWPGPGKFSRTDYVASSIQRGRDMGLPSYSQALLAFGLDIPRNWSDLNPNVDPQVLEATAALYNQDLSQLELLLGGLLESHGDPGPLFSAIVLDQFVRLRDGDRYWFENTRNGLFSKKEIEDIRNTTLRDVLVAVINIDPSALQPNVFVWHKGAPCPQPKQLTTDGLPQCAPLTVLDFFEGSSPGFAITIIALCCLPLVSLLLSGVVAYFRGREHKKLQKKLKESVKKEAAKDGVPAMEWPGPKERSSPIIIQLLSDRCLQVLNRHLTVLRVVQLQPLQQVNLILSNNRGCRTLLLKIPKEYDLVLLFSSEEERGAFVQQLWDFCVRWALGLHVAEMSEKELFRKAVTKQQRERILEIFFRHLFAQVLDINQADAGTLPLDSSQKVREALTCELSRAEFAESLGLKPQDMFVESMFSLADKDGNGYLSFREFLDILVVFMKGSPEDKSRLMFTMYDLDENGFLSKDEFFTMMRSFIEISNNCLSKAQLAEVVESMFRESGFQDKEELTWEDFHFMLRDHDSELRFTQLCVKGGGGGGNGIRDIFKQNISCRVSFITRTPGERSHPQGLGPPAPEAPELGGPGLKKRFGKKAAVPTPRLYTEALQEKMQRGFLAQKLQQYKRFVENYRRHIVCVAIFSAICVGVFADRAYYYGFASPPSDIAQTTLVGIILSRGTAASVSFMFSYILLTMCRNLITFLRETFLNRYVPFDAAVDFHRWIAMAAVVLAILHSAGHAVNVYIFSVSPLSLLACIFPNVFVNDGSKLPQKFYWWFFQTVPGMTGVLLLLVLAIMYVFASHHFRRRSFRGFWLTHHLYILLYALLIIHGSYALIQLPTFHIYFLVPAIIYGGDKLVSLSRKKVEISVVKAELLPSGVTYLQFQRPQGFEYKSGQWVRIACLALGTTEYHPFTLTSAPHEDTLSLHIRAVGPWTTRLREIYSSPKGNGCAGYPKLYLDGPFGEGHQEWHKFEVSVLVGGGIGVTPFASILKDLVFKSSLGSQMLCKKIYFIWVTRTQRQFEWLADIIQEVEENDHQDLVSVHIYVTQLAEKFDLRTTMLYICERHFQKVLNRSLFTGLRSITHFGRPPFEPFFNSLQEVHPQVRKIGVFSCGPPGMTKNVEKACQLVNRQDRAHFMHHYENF
With MSRVPSPPPPAEMSSGPVAESWCYTQIKVVKFSYMWTINNFSFCREEMGEVIKSSTFSSGANDKLKWCLRVNPKGLDEESKDYLSLYLLLVSCPKSEVRAKFKFSILNAKGEETKAMESQRAYRFVQGKDWGVKKFIRRDFLLDEANGLLPDDKLTLFCEVSVVQDSVNISGQNTMNMVKVPECRLADELGGLWENSRFTDCCLCVAGQEFQAHKAILAARSPVFSAMFEHEMEESKKNRVEINDVEPEVFKEMMCFIYTGKAPNLDKMADDLLAAADKYALERLKVMCEDALCSNLSVENAAEILILADLHSADQLKTQAVDFINYHASDVLETSGWKSMVVSHPHLVAEAYRSLASAQCPFLGPPRKRLKQS [F133V] the “effect of a mutation on the interaction” value was “with no effect”.

Variants of: B1
Details: with e2f2_human E2F2, Q14209
e2f2_human E2F2, Q14209, sequence (Q14209 whole entry): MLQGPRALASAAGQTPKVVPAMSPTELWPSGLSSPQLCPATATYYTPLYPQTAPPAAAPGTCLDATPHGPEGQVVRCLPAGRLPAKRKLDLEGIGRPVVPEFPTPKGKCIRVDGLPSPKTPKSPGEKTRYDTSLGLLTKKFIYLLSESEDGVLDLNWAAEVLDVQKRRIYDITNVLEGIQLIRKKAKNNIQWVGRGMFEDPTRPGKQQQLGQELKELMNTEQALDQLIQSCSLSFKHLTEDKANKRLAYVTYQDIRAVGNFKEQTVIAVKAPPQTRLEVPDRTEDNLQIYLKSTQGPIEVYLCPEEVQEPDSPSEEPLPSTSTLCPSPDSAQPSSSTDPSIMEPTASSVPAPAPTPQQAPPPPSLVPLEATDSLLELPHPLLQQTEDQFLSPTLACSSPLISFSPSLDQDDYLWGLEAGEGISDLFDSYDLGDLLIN
For MSRVPSPPPPAEMSSGPVAESWCYTQIKVVKFSYMWTINNFSFCREEMGEVIKSSTFSSGANDKLKWCLRVNPKGLDEESKDYLSLYLLLVSCPKSEVRAKFKFSILNAKGEETKAMESQRAYRFVQGKDWGVKKFIRRDFLLDEANGLLPDDKLTLFCEVSVVQDSVNISGQNTMNMVKVPECRLADELGGLWENSRFTDCCLCVAGQEFQAHKAILAARSPVFSAMFEHEMEESKKNRVEINDVEPEVFKEMMCFIYTGKAPNLDKMADDLLAAADKYALERLKVMCEDALCSNLSVENAAEILILADLHSADQLKTQAVDFINYHASDVLETSGWKSMVVSHPHLVAEAYRSLASAQCPFLGPPRKRLKQS [F133V], the “effect of a mutation on the interaction” value was “with no effect”.

Variants of: B1
Details: with e2f3_human E2F3, O00716
e2f3_human E2F3, O00716, sequence (O00716 whole entry): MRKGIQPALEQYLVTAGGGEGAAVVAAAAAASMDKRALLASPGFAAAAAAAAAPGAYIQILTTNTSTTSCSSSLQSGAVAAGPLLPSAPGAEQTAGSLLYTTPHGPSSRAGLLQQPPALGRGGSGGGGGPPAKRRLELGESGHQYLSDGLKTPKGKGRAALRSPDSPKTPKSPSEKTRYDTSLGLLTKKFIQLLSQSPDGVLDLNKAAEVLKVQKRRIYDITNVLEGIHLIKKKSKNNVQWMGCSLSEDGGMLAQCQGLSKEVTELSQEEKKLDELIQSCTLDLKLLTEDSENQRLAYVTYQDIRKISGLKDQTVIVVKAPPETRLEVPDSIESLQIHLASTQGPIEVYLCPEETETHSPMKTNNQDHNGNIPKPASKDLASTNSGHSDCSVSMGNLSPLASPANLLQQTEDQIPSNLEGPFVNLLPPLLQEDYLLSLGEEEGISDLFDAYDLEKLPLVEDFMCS
For MSRVPSPPPPAEMSSGPVAESWCYTQIKVVKFSYMWTINNFSFCREEMGEVIKSSTFSSGANDKLKWCLRVNPKGLDEESKDYLSLYLLLVSCPKSEVRAKFKFSILNAKGEETKAMESQRAYRFVQGKDWGVKKFIRRDFLLDEANGLLPDDKLTLFCEVSVVQDSVNISGQNTMNMVKVPECRLADELGGLWENSRFTDCCLCVAGQEFQAHKAILAARSPVFSAMFEHEMEESKKNRVEINDVEPEVFKEMMCFIYTGKAPNLDKMADDLLAAADKYALERLKVMCEDALCSNLSVENAAEILILADLHSADQLKTQAVDFINYHASDVLETSGWKSMVVSHPHLVAEAYRSLASAQCPFLGPPRKRLKQS [F133V], the “effect of a mutation on the interaction” value was “with no effect”.

Variants of: B1
Details: with e2f5_human E2F5, Q15329
e2f5_human E2F5, Q15329, sequence (Q15329 whole entry): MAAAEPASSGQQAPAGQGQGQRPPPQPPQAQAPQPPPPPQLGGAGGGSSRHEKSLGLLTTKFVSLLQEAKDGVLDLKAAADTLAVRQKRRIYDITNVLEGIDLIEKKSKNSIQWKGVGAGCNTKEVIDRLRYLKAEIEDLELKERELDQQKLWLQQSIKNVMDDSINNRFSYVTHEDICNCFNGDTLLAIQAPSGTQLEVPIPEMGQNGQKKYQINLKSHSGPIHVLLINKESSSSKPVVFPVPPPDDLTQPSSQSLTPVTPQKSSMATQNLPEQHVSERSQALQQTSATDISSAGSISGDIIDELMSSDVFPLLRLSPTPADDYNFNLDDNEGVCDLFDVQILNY
For MSRVPSPPPPAEMSSGPVAESWCYTQIKVVKFSYMWTINNFSFCREEMGEVIKSSTFSSGANDKLKWCLRVNPKGLDEESKDYLSLYLLLVSCPKSEVRAKFKFSILNAKGEETKAMESQRAYRFVQGKDWGVKKFIRRDFLLDEANGLLPDDKLTLFCEVSVVQDSVNISGQNTMNMVKVPECRLADELGGLWENSRFTDCCLCVAGQEFQAHKAILAARSPVFSAMFEHEMEESKKNRVEINDVEPEVFKEMMCFIYTGKAPNLDKMADDLLAAADKYALERLKVMCEDALCSNLSVENAAEILILADLHSADQLKTQAVDFINYHASDVLETSGWKSMVVSHPHLVAEAYRSLASAQCPFLGPPRKRLKQS [F133V], the “effect of a mutation on the interaction” value was “with no effect”.

Variants of: B1
Details: with e2f6_human E2F6, O75461
e2f6_human E2F6, O75461, sequence (O75461 whole entry): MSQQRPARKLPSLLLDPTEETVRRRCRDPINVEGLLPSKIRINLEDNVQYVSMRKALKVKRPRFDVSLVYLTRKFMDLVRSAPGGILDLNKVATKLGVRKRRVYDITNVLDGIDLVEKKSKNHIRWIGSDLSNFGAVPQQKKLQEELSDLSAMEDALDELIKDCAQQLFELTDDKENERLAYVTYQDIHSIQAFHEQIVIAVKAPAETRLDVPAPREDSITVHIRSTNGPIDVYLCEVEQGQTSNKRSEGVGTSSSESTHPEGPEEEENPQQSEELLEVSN
For MSRVPSPPPPAEMSSGPVAESWCYTQIKVVKFSYMWTINNFSFCREEMGEVIKSSTFSSGANDKLKWCLRVNPKGLDEESKDYLSLYLLLVSCPKSEVRAKFKFSILNAKGEETKAMESQRAYRFVQGKDWGVKKFIRRDFLLDEANGLLPDDKLTLFCEVSVVQDSVNISGQNTMNMVKVPECRLADELGGLWENSRFTDCCLCVAGQEFQAHKAILAARSPVFSAMFEHEMEESKKNRVEINDVEPEVFKEMMCFIYTGKAPNLDKMADDLLAAADKYALERLKVMCEDALCSNLSVENAAEILILADLHSADQLKTQAVDFINYHASDVLETSGWKSMVVSHPHLVAEAYRSLASAQCPFLGPPRKRLKQS [F133V], the “effect of a mutation on the interaction” value was “with no effect”.
